Like-named read-outs stand apart in the source and are kept apart here. One block for each substance: values may come before it.
Experiments:
[1] = target: MOP Vγ9Vδ2 TCR (soluble, biotinylated) (human); experiment: SPR; BIAcore3000; biotinylated TCRs (2000-3000 RU) captured on streptavidin-coated CM5 chips; BTN IgV domain injected as analyte, 1-200 μM; HBS-EP buffer; equilibrium affinity measurements
[2] = target: Vγ9Vδ1 TCR (soluble, biotinylated) (human); experiment: as above
[3] = target: MOP Vγ9Vδ2 TCR (soluble, biotinylated) (human); experiment: as above; remark: listed apart in the source
[4] = target: Vγ9Vδ1 TCR (soluble, biotinylated) (human); experiment: as above; remark: listed apart in the source
[5] = target: Vγ9Vδ2 TCR (soluble, biotinylated; clone not stated for this experiment) (human); experiment: as above
[6] = target: Vγ9Vδ2 TCR (soluble, biotinylated; clone not stated for this experiment) (human); experiment: as above; remark: listed apart in the source
[7] = target: BTN2A1 peptide on (human); experiment: SPR, equilibrium affinity and Scatchard analysis; representative experiment of Figure 3B; soluble, other
[8] = target: BTN2A1 peptide on (human); experiment: SPR, equilibrium affinity; biotinylated TCR captured on a streptavidin chip, BTN2A1 IgV as analyte; soluble, other
[9] = target: Vγ9Vδ2 TCR (soluble, biotinylated; clone not stated for this experiment); experiment: SPR; conditions: parent: est. 1.0; read off a plot

Substance: BTN2A1 IgV (from UniProt Q7KYR7 27-142) (domain or fragment)
- Kd [1]: 48.4 µM
- Kd [2]: 47.9 µM
- Kd [3]: 49.9 µM
- Kd [4]: 46.6 µM

Substance: BTN2A1 IgV K79A (from UniProt Q7KYR7 27-142) (domain or fragment)
- Kd [5]: 100 µM

Next, values leading:

- Kd [5]: 11 to 15 µM
- Kd [6]: 10 to 15 µM
Substance: BTN2A1 IgV S72A (from UniProt Q7KYR7 27-142) (domain or fragment)

- Kd [7]: 48.4 µM
- Kd [8]: 49.9 µM
Substance: Vγ9Vδ2 MOP TCR

- ratio to parent [9]: 0.8
Substance: BTN2A1 IgV (from UniProt Q7KYR7) Y133A

From article PMC7083227
